Results as given in patent publication US20140235701, “NGF APTAMER AND APPLICATION THEREOF” (RIBOMIC INC., published 2014).

What was measured:
[1] = molecular target: T1, NGF (nerve growth factor) (Homo sapiens, UniProt P01138 P01138:122-241); experiment: SPR; more than 40N; high inhibition of receptor binding; conditions: tags: R&D Systems, chain copies: 2
[2] = molecular target: T1, NGF (nerve growth factor); experiment: cell_activity; neurite; conditions: tags: R&D Systems; chain copies: 2
Protocol: (§1) The cells (2500 cells per well) were cultured for one day in an RPMI-1640 medium containing 2.5% horse serum and 1.25% fetal bovine serum in a 96 well flat-bottom plate coated with collagen type IV. […] Two days later, the cytoplasm and nuclei were stained using Cellomics Neurite Outgrowth Kit (manufactured by Thermo Scientific), and neurite length per cell was measured by Cellomics ArrayScan VTI (manufactured by Thermo Scientific). With the neurite length per cell obtained by the addition of NGF alone as inhibitory activity 0%, and that of the cell obtained by NGF free culture for 2 days as inhibitory activity 100%, the inhibitory activity of the aptamer was calculated from the neurite length per cell obtained by culturing with the addition of NGF and the aptamer in mixture.

[3] = molecular target: T1, NGF (nerve growth factor); experiment: SPR; strong binding; conditions: tags: R&D Systems; chain copies: 2
[4] = molecular target: T1, NGF (nerve growth factor); experiment: cell_activity; neurite; TF-1 >0.3; conditions: tags: R&D Systems; chain copies: 2
[5] = molecular target: T1, NGF (nerve growth factor); experiment: cell_activity; neurite outgrowth inhibition; conditions: tags: R&D Systems; chain copies: 2
Protocol: as §1

[6] = molecular target: T1, NGF (nerve growth factor); experiment: cell_activity; neurite; TF-1 <0.3; conditions: tags: R&D Systems; chain copies: 2
[7] = molecular target: T1, NGF (nerve growth factor); experiment: cell_activity; neurite; TF-1 >0.1; conditions: tags: R&D Systems; chain copies: 2

T1 sequence (P01138 122-241, one chain of several): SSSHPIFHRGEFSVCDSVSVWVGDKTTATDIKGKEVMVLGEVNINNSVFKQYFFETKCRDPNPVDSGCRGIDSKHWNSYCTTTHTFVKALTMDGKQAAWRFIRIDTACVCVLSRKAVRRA

B1: SEQ ID NO: 13 (ssRNA)
RNA: GGGGUCCUGCUGCGUAGUUUCCGUCUCCGUGGCUGUUACCCC
modifications: 2'-F C and U; 2'-OH G; 2'-H (deoxy) A
binding result [1]: binds

B2: SEQ ID NO: 14 (ssRNA)
RNA: GGGAGAACUUCGACCAGAAGUGCAAUACUUUCGCGGCAUAUGUGCAAACCUUGCCACGACUAUGUGCGCAUACAUGGA
modifications: 2'-F C and U; 2'-OH G; 2'-H (deoxy) A
binding result [1]: binds

B3: SEQ ID NO: 12 (ssRNA)
RNA: GGGUCCUGCUGCGUAGUUUCCGUCUCCGUGGCUGUUACCC
modifications: 2'-F C and U; 2'-OH G; 2'-H (deoxy) A
binding result ([1]; stem 1 - internal loop 1 - stem 2 - loop 2 (consensus secondary structure 1)): binds

B4: SEQ ID NO: 152 (ssRNA)
RNA: GGGUCCUGCUGCGUAGUUUCCGUCUGCGUGGCUGUUACCC
modifications: 2'-OMe G (G8,G34 2'-OH), dA, 2'-F C/U; 5',3' idT
IC50 [2]: ≤ 1 nM

B5: SEQ ID NO: 155 (ssRNA)
RNA: GGGUCCUGCUGCGCAGUUUCCGUCUACGUGGCUGUUACCC
modifications: 2'-OMe G (G8,G34 2'-OH), dA, 2'-F C/U; 5',3' idT
IC50 [2]: ≤ 1 nM

B6: SEQ ID NO: 43 (ssRNA)
RNA: GGGUCCUGCUGCGGAGUUUCCUUCUUCGUGGCUGUUACCC
modifications: 2'-F C and U; 2'-OH G; 2'-H (deoxy) A
binding result [3]: binds

B7: SEQ ID NO: 151 (ssRNA)
RNA: GGGUCCUGCUGCGUAGUUUCCGUCUGCGUGGCUGUUACCC
modifications: 2'-OMe G (G8,G26,G34 2'-OH), dA, 2'-F C/U; 5',3' idT
IC50 [2]: ≤ 1 nM

B8: SEQ ID NO: 39 (ssRNA)
RNA: GGGUCCUGCUGCGCAGUUUCCGUCUGCGUGGCUGUUACCC
modifications: 2'-F C and U; 2'-OH G; 2'-H (deoxy) A
binding result [3]: binds

B9: SEQ ID NO: 74(1) (ssRNA)
RNA: GGGUCCUGCUGCAGAGUUUCCGUCUCGGUGGCUGUUACCC
modifications: 2'-OMe G (G8,G34 2'-OH), dA, 2'-F C/U; 5',3' idT
IC50 [2]: ≤ 1 nM

B10: SEQ ID NO: 40 (ssRNA)
RNA: GGGUCCUGCUGCGUAGUUUCCAUCUGCGUGGCUGUUACCC
modifications: 2'-F C and U; 2'-OH G; 2'-H (deoxy) A
binding result [3]: binds

B11: SEQ ID NO: 68(1) (ssRNA)
RNA: GGGUCCUGAUGCGUAGUUUCCGUCUGCGUGUCUGUUACCC
modifications: 2'-OMe G (G8,G34 2'-OH), dA, 2'-F C/U; 5',3' idT
IC50 [2]: ≤ 1 nM

B12: SEQ ID NO: 154 (ssRNA)
RNA: GGGUCCUGCUGCGUAGUUUCCGUCUGCGUGGCUGUUACCC
modifications: 2'-OMe G (G8,G34 2'-OH), dA, 2'-F C/U; 5' idT, 3' PEG40GS2
IC50 [2]: ≤ 1 nM

B13: SEQ ID NO: 71(1) (ssRNA)
RNA: GGGUCCUGCUGCAUAGUUUCCGUCUGUGUGGCUGUUACCC
modifications: 2'-OMe G (G8,G34 2'-OH), dA, 2'-F C/U; 5',3' idT
IC50 [2]: ≤ 1 nM

B14: SEQ ID NO: 42 (ssRNA)
RNA: GGGUCCUGCUGCGCAGUUUCCCUCUGCGUGGCUGUUACCC
modifications: 2'-F C and U; 2'-OH G; 2'-H (deoxy) A
binding result [3]: binds

B15: SEQ ID NO: 41 (ssRNA)
RNA: GGGUCCUGCUGCGAAGUUUCCUUCUUCGUGGCUGUUACCC
modifications: 2'-F C and U; 2'-OH G; 2'-H (deoxy) A
binding result [3]: binds

B16: SEQ ID NO: 45 (ssRNA)
RNA: GGGUCCUGUUGCGUAGUUUCCUUCUACGUGGCUGUUACCC
modifications: 2'-F C and U; 2'-OH G; 2'-H (deoxy) A
binding result [3]: binds

B17: SEQ ID NO: 153 (ssRNA)
RNA: GGGUCCUGCUGCGUAGUUUCCGUCUGCGUGGCUGUUACCC
modifications: 2'-OMe G (G8,G34 2'-OH), dA, 2'-F C/U; 5' PEG40GS2, 3' idT
IC50 [2]: ≤ 1 nM

B18: SEQ ID NO: 89(5) (ssRNA)
RNA: GGGUCCUGUGGAAGAGUUUCCGUCUCGUCCACUGUUACCC
modifications: as 89(4) plus 2'-OMe U4,A15,A31,A37; no 5' idT
IC50 [4]: 0.079 nM

B19: SEQ ID NO: 9 (ssRNA)
RNA: GGGAGAACUUCGACCAGAAGUUGGCACAUCCUGCUGCGUAGUUUCCGUCUCCGUGGCUGUUAUGUGCGCAUAC
modifications: 2'-F C and U; 2'-OH G; 2'-H (deoxy) A
binding result [1]: binds

B20: SEQ ID NO: 10 (ssRNA)
RNA: GGGAGAACUUCGACCAGAAGUUGGCACAUCCUGCUGCGUAGUUUCCGUCUCCGUGGCUGUUAUGUGCG
modifications: 2'-F C and U; 2'-OH G; 2'-H (deoxy) A
binding result [1]: binds

B21: SEQ ID NO: 84 (ssRNA)
RNA: GGGUCCUGUCGCUAAGUUUCCGUCUUUGCGGCUGUUACCC
modifications: 2'-F C and U; 2'-OH G; 2'-H (deoxy) A
IC50 [5]: 0.793 nM

B22: SEQ ID NO: 38(1) (ssRNA)
RNA: GGGUCCUGCUGCGUAGUUUCCGUCUUCGCGGCUGUUACCC
modifications: 2'-OMe G (G8,G34 2'-OH), dA, 2'-F C/U; 5',3' idT
IC50 [2]: ≤ 1 nM

B23: SEQ ID NO: 66(1) (ssRNA)
RNA: GGGUCCUGCUGCAUAGUUUCCGUCUUUGUGGCUGUUACCC
modifications: 2'-OMe G (G8,G34 2'-OH), dA, 2'-F C/U; 5',3' idT
IC50 [2]: ≤ 1 nM

B24: SEQ ID NO: 16 (ssRNA)
RNA: CGACCAGAAGUGCAAUACUUUCGCGGCAUAUGUGCAAACCUUGCCACGACUAUGUGCGCAUAC
modifications: 2'-F C and U; 2'-OH G; 2'-H (deoxy) A
binding result [1]: binds

B25: SEQ ID NO: 15 (ssRNA)
RNA: GGGAGAACUUCGACCAGAAGUGCAAUACUUUCGCGGCAUAUGUGCAAACCUUGCCACGACUAUGUGCGCAUAC
modifications: 2'-F C and U; 2'-OH G; 2'-H (deoxy) A
binding result [1]: binds

B26: SEQ ID NO: 11 (ssRNA)
RNA: GGGCACAUCCUGCUGCGUAGUUUCCGUCUCCGUGGCUGUUAUGUGC
modifications: 2'-F C and U; 2'-OH G; 2'-H (deoxy) A
binding result [1]: binds

B27: SEQ ID NO: 82(64) (ssRNA)
RNA: GGGUCCUGGAUAAGAGUUUCCGUCUCGUAUCCUGUUACCC
modifications: 2'-F C5,U7,U17,U18,U19,C20,C24,U25,U33,U36; 2'-OH G8,G34; 2'-H A; 2'-OMe all other; 5' PEG40TS2; 3' idT
IC50 [5]: 0.107 nM

B28: SEQ ID NO: 78 (ssRNA)
RNA: GGGUCCUGGCCAAGAGUUUCCGUCUCGUGGUCUGUUACCC
modifications: 2'-F C/U, dA, 2'-OH G
IC50 [6]: < 0.3 nM

B29: SEQ ID NO: 161 (ssRNA)
RNA: GGGUCCUGGAUAAGAGUUUCCGUCUCGUAUCCTGUUACCC
modifications: 2'-F C5,U7,U17,U18,U19,C20,C24,U25,U36; dT33; 2'-OH G8,G34; 2'-H A; 2'-OMe all other; idT 5' and 3'
IC50 [5]: 0.036 nM

B30: SEQ ID NO: 82(56) (ssRNA)
RNA: GGGUCCUGGAUAAGAGUUUCCGUCUCGUAUCCUGUUACCC
modifications: 2'-F all C and U; 2'-OMe G1-3,G9,G14,G16,G22,G27; 2'-OH G8,G34; 2'-H A; 5' PEG40GS2; 3' idT
IC50 [5]: 0.067 nM

B31: SEQ ID NO: 82(57) (ssRNA)
RNA: GGGUCCUGGAUAAGAGUUUCCGUCUCGUAUCCUGUUACCC
modifications: as 82(48) without 5' idT; PS between U7 and G8
IC50 [4]: 0.045 nM

B32: SEQ ID NO: 76 (ssRNA)
RNA: GGGUCCUGAUUAAGAGUUUCCGUCUCGUAAUCUGUUACCC
modifications: 2'-F C/U, dA, 2'-OH G
IC50 [6]: < 0.3 nM

B33: SEQ ID NO: 82(1) (ssRNA)
RNA: GGGUCCUGGAUAAGAGUUUCCGUCUCGUAUCCUGUUACCC
modifications: 2'-F all C and U; 2'-OMe G1-3,G9,G14,G16,G22,G27; 2'-OH G8,G34; 2'-H A; idT 5' and 3'
IC50 [5]: 0.7 nM

B34: SEQ ID NO: 82(59) (ssRNA)
RNA: GGGUCCUGGAUAAGAGUUUCCGUCUCGUAUCCUGUUACCC
modifications: as 82(48) without 5' idT; PS between U11 and A12
IC50 [4]: 0.034 nM

B35: SEQ ID NO: 168 (ssRNA)
RNA: GGGUCCUGGAUAAGAGTUUCCGUCUCGUAUCCTGUUACCC
modifications: as 82(48) except dU7,dT17,dT33,dU36
IC50 [7]: 0.261 nM

B36: SEQ ID NO: 80 (ssRNA)
RNA: GGGUCCUGGCUAAGAGUUUCCGUCUCGUAGUCUGUUACCC
modifications: 2'-F C/U, dA, 2'-OH G
IC50 [6]: < 0.3 nM

B37: SEQ ID NO: 83 (ssRNA)
RNA: GGGUCCUGUACAAGAGUUUCCGUCUCGUGUACUGUUACCC
modifications: 2'-F C/U, dA, 2'-OH G
IC50 [6]: < 0.3 nM

B38: SEQ ID NO: 79 (ssRNA)
RNA: GGGUCCUGGUUAAGAGUUUCCGUCUCGUAACCUGUUACCC
modifications: 2'-F C/U, dA, 2'-OH G
IC50 [6]: < 0.3 nM

B39: SEQ ID NO: 82(61) (ssRNA)
RNA: GGGUCCUGGAUAAGAGUUUCCGUCUCGUAUCCUGUUACCC
modifications: as 82(48) without 5' idT; PS between A13 and G14
IC50 [4]: 0.031 nM

B40: SEQ ID NO: 82(58) (ssRNA)
RNA: GGGUCCUGGAUAAGAGUUUCCGUCUCGUAUCCUGUUACCC
modifications: as 82(48) without 5' idT; PS between G8 and G9
IC50 [4]: 0.072 nM

B41: SEQ ID NO: 82(62) (ssRNA)
RNA: GGGUCCUGGAUAAGAGUUUCCGUCUCGUAUCCUGUUACCC
modifications: as 82(48) without 5' idT; PS between U33 and G34
IC50 [4]: 0.039 nM

B42: SEQ ID NO: 111(1) (ssRNA)
RNA: GGGUCCUGUCUAAGAGUUUCCGUCUCGUAGACUGUUACCC
modifications: 2'-OMe except 2'-F C5,U7,U17-19,C20,C24,U25,U33,U36, 2'-OH G8,G34, dA12,dA13; 3' idT
IC50 [4]: 0.06 nM

B43: SEQ ID NO: 77 (ssRNA)
RNA: GGGUCCUGACUAAGAGUUUCCGUCUCGUAGUCUGUUACCC
modifications: 2'-F C/U, dA, 2'-OH G
IC50 [6]: < 0.3 nM

B44: SEQ ID NO: 160 (ssRNA)
RNA: GGGUCCUGGAUAAGAGTUUCCGUCUCGUAUCCUGUUACCC
modifications: 2'-F C5,U7,U18,U19,C20,C24,U25,U33,U36; dT17; 2'-OH G8,G34; 2'-H A; 2'-OMe all other; idT 5' and 3'
IC50 [5]: 0.038 nM

B45: SEQ ID NO: 82 (ssRNA)
RNA: GGGUCCUGGAUAAGAGUUUCCGUCUCGUAUCCUGUUACCC
modifications: 2'-F C/U, dA, 2'-OH G
IC50 [6]: < 0.3 nM
